The values below come from article PMC4715444, “A simple and rapid method for measuring α-D-phosphohexomutases activity by using anion-exchange chromatography coupled with an electrochemical detector” (PeerJ, 2016).

Substrate in the series: O=P(O)(O)O[C@H]1O[C@H](CO)[C@@H](O)[C@H](O)[C@H]1O
Nature of the series: HPAEC-PAD, direct detection of hexose phosphates. It counts as biochemical, Arabidopsis thaliana. The note with it: 20 mM PBS pH 7.0, 10 mM MgSO4, 20 µM glucose-1,6-bisphosphate, 30 °C. The source says:
HPAEC-PAD, direct detection of hexose phosphates on AtAGM

B1: AtAGM (Arabidopsis thaliana) (protein)
chain: MDEIQIASILKSSELFPIPQGVKLSYGTAGFRGDAKLLESTVYRVGILSALRSLKLGSATVGLMITASHNKVSDNGIKVSDPSGFMLSQEWEPFADQIANASSPEELVSLIRKFMEKEEIAIGENNKGAEVWLGRDTRPSGESLLRAGEIGVGSILGSVAIDIGILTTPQLHWMVRAKNKGLKATENDYFENLSTSFRCLIDLIPSSGNDKLEISKLLVDGANGVGGQKIEKLRGSLSNLDVEIRNTGRDGGVLNEGVGADFVQKEKVLPVGFGFKDVGMRCASLDGDADRLVYFYIPSDSSEKVELLDGDKILSLFALFIKEQLNALEDDEERKQSRLGVVQTAYANGASTDYLKHLGLDVVFAKTGVKHLHEKAAEFDIGIYFEANGHGTILFSESFLSWLVSKQKDLTAKGQGGSEEHKAVSRLMAVSNLINQAVGDALSGVLLVEVILQHLGWSIEKWNELYKDLPSRQIKVEVPDRTAVVTTSEETEALRPMGIQDAINSEIKKYSRGRAFIRPSGTEDVVRVYAEASTQEDADSLANSVAQLVKSFLGSS
Usually Km stands for the concentration of substrate that gives half-maximal velocity. By Vmax is commonly meant the top rate of the reaction or transport when substrate is in excess. A word on the kcat: it is the maximal rate divided by the concentration of active sites. Regarding B1, the Michaelis constant (Km) amounted to 679.18 ± 156.40 µM, the Vmax was 0.137 µmol/min and the kcat was found to be 40.4 s⁻¹.
